Source: the supplement of paper PMC9170038

Test system: MS2 coat protein
Experiment: apparent KD of MS2 coat protein; designed switch direction (-1 OFF switch, 1 ON switch): -1; higher = weaker reporter binding
Outline: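 Normalised cluster fluorescence was curve-fitted, and each design's median over clusters is its apparent KD. Before this, SNAP-549-labelled MS2 coat protein was titrated from 0.7 or 1.5 nM, doubling to 3 µM, over RNA switches transcribed on Illumina chips by stalled E. coli RNA polymerase. Titrations had no input, 200 uM small-molecule ligand, or an oligonucleotide input, and steps lasted 0.8–1.5 h (lowest) to 10–20 min (highest).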

[1] = input ligand: microRNA oligo, concentration not stated
[2] = Eterna round: R95, input ligand: microRNA oligo, concentration not stated

Sequence	apparent KD of MS2 coat protein (input ligand: FMN 200 uM)	apparent KD of MS2 coat protein [1]	apparent KD of MS2 coat protein (input ligand: none)	apparent KD of MS2 coat protein [2]	apparent KD of MS2 coat protein (Eterna round: R95, input ligand: FMN 200 uM)	apparent KD of MS2 coat protein (Eterna round: R95, input ligand: none)
GCUCGCGGGCAAGGAUAUCCCACGCUGUUCUGGCCCGUGUCUGUUACAUGAGGAUCACCCAUGUGGGAGAAGGUGCACCAGGGC [Design 45] (Eterna round: R96, puzzle: Exclusion NG 2)	115 nM	26.8 nM	44.1 nM	–	–	–
GCUCUGUGAGGAUAUAUAACGCAUUGGAUAGUGAAACUUAGACAUGAGGAUCACCCAUGUAGAAGGUACGGUAG [Eternabot (L2) Solution 76] (Eterna round: R97, puzzle: Exclusion 2)	77.8 nM	–	99 nM	–	–	–
GCUGAUCGGCUAGGAUAUACAUUGAUCCUAGGAGGCUAAGCCUCAAAGACAUGAGGAUCACCCAUGUAGAAGGAGCAGCAGUAA [Armaonve] (Eterna round: R96, puzzle: Exclusion NG 2)	103 nM	23.3 nM	39.4 nM	–	–	–
GCUGCAAAUGUAGGAUAUCUGCACGAUUAGUGCAGAGAAGGACAUGAGGAUCACCCAUGUAGAUCAGCAGCAAUUAAUUUAAUU [ENG1/5-A1] (Eterna round: R96, puzzle: Exclusion NG 1)	413 nM	42.1 nM	41.5 nM	–	–	–
GCUGCGCGAGGAUAUGCGGUUCGCGCUGUGGCCCGUGGCGCACAUGAGGAUCACCCAUGUAGAAGGCGUGCGGG [Apr-15 SS2-57] (puzzle: Exclusion 2)	–	–	–	9.52 nM	–	–
GCUGGAAGAGGAUAUACAUAACGUGCGUCAGCACGAGGCCUACAUGAGGAUCACCCAUGUAGAAGGCUUCCAGC [EX2 #77] (Eterna round: R97, puzzle: Exclusion 2)	27.9 nM	–	15.5 nM	–	–	–
GCUGGACGAGGAUAUGCAAUCGUGCUUCGGCACGUAAGGUCACAUGAGGAUCACCCAUGUAGAAGGUGUCCAGC [E2/4-B2] (Eterna round: R97, puzzle: Exclusion 2)	31.1 nM	–	20.5 nM	–	–	–
GCUGGUCGAGGAUAUACAUGAGGAUCACCCAUGUGGUCACGUGACUUCGGUCACGAAUGUAGAAGGCGACCAGC [E3/3-A4] (Eterna round: R97, puzzle: Exclusion 3)	65.8 nM	–	610 nM	–	–	–
GCUUAACAUGUAGGAUAUGCGUGGCGAAGCUAUGCAGAAGGACAUGAGGAUCACCCAUGUUUUAGCGUCUGCGUACAGAUGCGU [JL ENG1 1.42] (Eterna round: R96, puzzle: Exclusion NG 1)	178 nM	19.8 nM	22.4 nM	–	–	–
GCUUAGGAAGGAUAUACAUGAGGAUCACCCAUGUUGACGCGGUAGGGCCCGGUAGCACGUAGAAGGUCUAUAGC [Eternabot (L2) Solution 46] (Eterna round: R97, puzzle: Exclusion 3)	28.5 nM	–	19.4 nM	–	–	–
GCUUGUGGGCAAGGAUAUCCUGCGCUGUUCUGGUUCGUGUCUGUCACAUGAGGAUCACCCAUGUGGGAGAAGGUGCCUUUGGCG [Design 65] (Eterna round: R96, puzzle: Exclusion NG 2)	12.5 nM	10.5 nM	13.2 nM	–	–	–
GGAAAGCAAGGAUAUACGAGGAGAAGGAGGAAAGUUAAAGGACAUGAGGAUCACCCAUGUAGAAGGUGCGAGAG [JR_Exclu2_Sub041] (puzzle: Exclusion 2)	–	–	–	30.7 nM	30 nM	34.6 nM
